Results: the supplement of paper PMC11246515
± gives the standard deviation of the averaged measurements.

Test: total protein half-life in vivo (active degradation + dilution); higher = more stable protein
[1] = E. coli NCM3722 delta-hslV, growth: N-lim chemostat, doubling time 6 h
[2] = E. coli NCM3722 delta-lon, growth: N-lim chemostat, doubling time 6 h
[3] = wild type E. coli NCM3722, growth: C-lim chemostat, doubling time 3 h
[4] = wild type E. coli NCM3722, growth: N-lim chemostat, doubling time 12 h
[5] = E. coli NCM3722 delta-clpP delta-lon delta-hslV, growth: N-lim chemostat, doubling time 6 h
[6] = E. coli NCM3722 delta-clpP, growth: N-lim chemostat, doubling time 6 h
[7] = E. coli NCM3722 delta-smpB, growth: N-lim chemostat, doubling time 6 h
[8] = wild type E. coli NCM3722, growth: C-lim chemostat, doubling time 6 h
[9] = wild type E. coli NCM3722, growth: C-lim chemostat, doubling time 12 h
[10] = wild type E. coli NCM3722, growth: N-lim chemostat, doubling time 6 h
[11] = wild type E. coli NCM3722, growth: P-lim chemostat, doubling time 6 h
[12] = wild type E. coli NCM3722, growth: P-lim chemostat, doubling time 12 h

Row | Sequence | total protein half-life in vivo [1] | total protein half-life in vivo [2] | total protein half-life in vivo [3] | total protein half-life in vivo [4] | total protein half-life in vivo [5] | total protein half-life in vivo [6] | total protein half-life in vivo [7] | total protein half-life in vivo [8] | total protein half-life in vivo [9] | total protein half-life in vivo [10] | total protein half-life in vivo [11] | total protein half-life in vivo [12]
1 | MFAEYGVLNYWTYLVGAIFIVLVPGPNTLFVLKNSVSSGMKGGYLAACGVFIGDAVLMFLAWAGVATLIKTTPILFNIVRYLGAFYLLYLGSKILYATLKGKNSEAKSDEPQYGAIFKRALILSLTNPKAILFYVSFFVQFIDVNAPHTGISFFILAATLELVSFCYLSFLIISGAFVTQYIRTKKKLAKVGNSLIGLMFVGFAARLATLQS | 4.19 ± 0.057 h | 5.03 ± 0.45 h | > 4 h | 8.29 h | – | – | – | – | – | – | – | –
2 | MTTIVDSNLPVARPSWDHSRLESRIVHLGCGAFHRAHQALYTHHLLESTDSDWGICEVNLMPGNDRVLIENLKKQQLLYTVAEKGAESTELKIIGSMKEALHPEIDGCEGILNAMARPQTAIVSLTVTEKGYCADAASGQLDLNNPLIKHDLENPTAPKSAIGYIVEALRLRREKGLKAFTVMSCDNVRENGHVAKVAVLGLAQARDPQLAAWIEENVTFPCTMVDRIVPAATPETLQEIADQLGVYDPCAIACEPFRQWVIEDNFVNGRPDWDKVGAQFVADVVPFEMMKLRMLNGSHSFLAYLGYLGGYETIADTVTNPAYRKAAFALMMQEQAPTLSMPEGTDLNAYATLLIERFSNPSLRHRTWQIAMDGSQKLPQRLLDPVRLHLQNGGSWRHLALGVAGWMRYTQGVDEQGNAIDVVDPMLAEFQKINAQYQGADRVKALLGLSGIFADDLPQNADFVGAVTAAYQQLCERGARECVAAL | 3.228 ± 0.01 h | 3.47 ± 0.17 h | 2.91 ± 0.27 h | 6.19 ± 2.3 h | 4.94 ± 2.6 h | 3.08 ± 0.24 h | 2.96 ± 0.24 h | 4.32 ± 0.52 h | 7.28 ± 2.2 h | 3.33 ± 0.044 h | 5.28 ± 0.23 h | 9.27 ± 0.21 h
3 | MALPRITQKEMTEREQRELKTLLDRARIAHGRVLTNSETNSIKKDYIDKLMVEREAEAKKARQLKKKQAYKPDPEASFSWSANTSTRGRR | 1.79 ± 0.25 h | 1.63 h | – | 2.87 ± 0.66 h | 5.58 ± 1 h | – | 2.02 h | 1.65 h | 2.08 h | – | – | –
4 | MTIHKKGQAHWEGDIKRGKGTVSTESGVLNQQPYGFNTRFEGEKGTNPEELIGAAHAACFSMALSLMLGEAGFTPTSIDTTADVSLDKVDAGFAITKIALKSEVAVPGIDASTFDGIIQKAKAGCPVSQVLKAEITLDYQLKS [P0C0L2] | 5.59 ± 0.41 h | 5.84 ± 0.083 h | 3.08 ± 0.62 h | 9.59 ± 0.6 h | 5.71 ± 0.14 h | 5.45 ± 0.62 h | 4.963 ± 0.042 h | 6.63 ± 0.81 h | 12.1 ± 0.22 h | 5.3 ± 0.28 h | 5.84 ± 0.082 h | 12.6 ± 0.93 h
5 | MTLPKIKQVRAWFTGGATAEKGAGGGDYHDQGANHWIDDHIATPMSKYRDYEQSRQSFGINVLGTLVVEVEAENGQTGFAVSTAGEMGCFIVEKHLNRFIEGKCVSDIKLIHDQMLSATLYYSGSGGLVMNTISCVDLALWDLFGKVVGLPVYKLLGGAVRDEIQFYATGARPDLAKEMGFIGGKMPTHWGPHDGDAGIRKDAAMVADMREKCGEDFWLMLDCWMSQDVNYATKLAHACAPYNLKWIEECLPPQQYESYRELKRNAPVGMMVTSGEHHGTLQSFRTLSETGIDIMQPDVGWCGGLTTLVEIAAIAKSRGQLVVPHGSSVYSHHAVITFTNTPFSEFLMTSPDCSTMRPQFDPILLNEPVPVNGRIHKSVLDKPGFGVELNRDCNLKRPYSH | – | – | 2.53 ± 0.29 h | – | – | – | – | 3.97 ± 0.25 h | 7.51 ± 1.1 h | > 8 h | – | 9.69 h
6 | MMMGEVQSLPSAGLHPALQDALTLALAARPQEKAPGRYELQGDNIFMNVMTFNTQSPVEKKAELHEQYIDIQLLLNGEERILFGMAGTARQCEEFHHEDDYQLCSTIDNEQAIILKPGMFAVFMPGEPHKPGCVVGEPGEIKKVVVKVKADLMA | 4.7878 ± 0.0042 h | 5.28 h | 2.61 ± 0.37 h | 7.67 h | 5.11 ± 0.56 h | 5.65 h | 4.8 ± 0.44 h | 5.51 ± 0.72 h | 9.27 ± 2.2 h | – | 4.2 ± 0.51 h | 10.3 ± 0.17 h
7 | MDKFDANRRKLLALGGVALGAAILPTPAFATLSTPRPRILTLNNLHTGESIKAEFFDGRGYIQEELAKLNHFFRDYRANKIKSIDPGLFDQLYRLQGLLGTRKPVQLISGYRSIDTNNELRARSRGVAKKSYHTKGQAMDFHIEGIALSNIRKAALSMRAGGVGYYPRSNFVHIDTGPARHW [P0AB06] | 2.76 ± 2.8 h | 1 ± 0.91 h | 0.68 ± 0.53 h | 1.81 ± 1.2 h | 3.83 ± 1.1 h | – | 1.8 ± 0.088 h | 2.67 ± 0.29 h | 6.36 ± 2 h | 1.97 ± 0.11 h | 1.82 ± 0.81 h | 2.46 ± 0.46 h
